Laboratory results published in US20210101970A1 (Pfizer, published 2021).

T1: human CXCR5 (human, UniProt P32302 1-372)
T1 sequence: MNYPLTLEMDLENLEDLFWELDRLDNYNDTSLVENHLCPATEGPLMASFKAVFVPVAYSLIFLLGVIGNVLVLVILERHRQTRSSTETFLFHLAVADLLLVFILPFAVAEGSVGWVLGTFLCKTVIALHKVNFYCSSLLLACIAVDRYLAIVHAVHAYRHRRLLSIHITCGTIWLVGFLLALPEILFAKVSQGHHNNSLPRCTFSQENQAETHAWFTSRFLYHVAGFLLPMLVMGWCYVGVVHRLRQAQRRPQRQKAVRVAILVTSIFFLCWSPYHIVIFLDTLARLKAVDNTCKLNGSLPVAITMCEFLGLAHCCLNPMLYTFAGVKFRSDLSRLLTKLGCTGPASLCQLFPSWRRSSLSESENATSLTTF

T2: cynomolgus monkey CXCR5 (cynomolgus monkey, UniProt P32302 1-372 (human entry))
T2 construct: also called cynoCXCR5; NHP CXCR5
T2 chain: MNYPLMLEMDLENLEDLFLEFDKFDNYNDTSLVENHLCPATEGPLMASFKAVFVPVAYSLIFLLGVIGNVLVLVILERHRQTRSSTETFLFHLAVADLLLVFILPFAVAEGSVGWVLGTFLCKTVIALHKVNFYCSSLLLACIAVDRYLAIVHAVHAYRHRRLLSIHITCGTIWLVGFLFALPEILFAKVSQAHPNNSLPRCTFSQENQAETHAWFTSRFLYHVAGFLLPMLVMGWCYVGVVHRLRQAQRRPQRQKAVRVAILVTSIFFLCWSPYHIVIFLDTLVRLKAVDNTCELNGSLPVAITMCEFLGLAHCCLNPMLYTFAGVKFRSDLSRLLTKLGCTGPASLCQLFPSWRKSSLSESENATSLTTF

T3: CXCR1 (human, UniProt P25024 1-350)
T3 construct: whole, on cells
T3 sequence (looked up): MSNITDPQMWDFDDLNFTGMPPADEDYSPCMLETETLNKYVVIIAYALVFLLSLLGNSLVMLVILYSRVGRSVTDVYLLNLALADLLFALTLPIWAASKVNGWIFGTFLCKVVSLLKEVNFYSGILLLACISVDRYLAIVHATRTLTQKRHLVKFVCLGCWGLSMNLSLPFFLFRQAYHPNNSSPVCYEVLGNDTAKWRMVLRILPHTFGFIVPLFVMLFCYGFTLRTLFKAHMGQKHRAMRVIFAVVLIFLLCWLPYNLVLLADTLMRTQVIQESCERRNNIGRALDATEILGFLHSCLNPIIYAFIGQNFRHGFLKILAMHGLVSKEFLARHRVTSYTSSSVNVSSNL

T4: CXCR2 (human, UniProt P25025 1-360)
T4 construct: whole, on cells
T4 sequence (looked up): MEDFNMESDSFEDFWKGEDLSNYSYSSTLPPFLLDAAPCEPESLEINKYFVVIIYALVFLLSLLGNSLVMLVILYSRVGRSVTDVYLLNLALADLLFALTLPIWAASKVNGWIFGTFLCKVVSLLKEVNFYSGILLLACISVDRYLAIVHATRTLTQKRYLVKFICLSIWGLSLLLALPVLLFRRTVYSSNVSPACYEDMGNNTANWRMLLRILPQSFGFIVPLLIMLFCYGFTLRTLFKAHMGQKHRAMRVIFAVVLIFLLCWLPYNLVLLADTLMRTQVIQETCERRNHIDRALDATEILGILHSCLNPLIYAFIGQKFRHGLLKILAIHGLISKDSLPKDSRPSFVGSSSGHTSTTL

T5: CXCR3 (human, UniProt P49682 1-368)
T5 construct: whole, on cells
T5 sequence (looked up): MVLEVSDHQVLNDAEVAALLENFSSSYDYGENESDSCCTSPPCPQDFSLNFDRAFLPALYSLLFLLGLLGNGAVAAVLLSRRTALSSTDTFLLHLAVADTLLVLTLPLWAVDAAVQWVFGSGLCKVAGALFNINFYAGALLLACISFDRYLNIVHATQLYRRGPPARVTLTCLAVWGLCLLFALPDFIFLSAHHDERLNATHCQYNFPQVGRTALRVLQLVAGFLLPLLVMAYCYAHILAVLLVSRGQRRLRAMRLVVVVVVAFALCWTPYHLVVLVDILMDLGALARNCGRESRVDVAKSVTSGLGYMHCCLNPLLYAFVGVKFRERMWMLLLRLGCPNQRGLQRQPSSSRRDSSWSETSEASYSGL

B1: Chimeric 41A10 (antibody, human IgG1, kappa, V domains shown)
VH: EVQLVESGGDLVKPGGSLKLSCAASGFTFRSYGMSWVRQTPDKRLEWVATISSGGTYTFYPDILKGRITISRDNAKNTLYLQMSNLKSEDTAMYYCARRGEDYRGALEHWGQGTSVTVSS
VL: QIVLTQSPAVMSASPGEKVTMTCSASSSVNYIHWYQQKSGTSPKRWIYETSRLASGVPVRFSGSGSGTSYSLTISTMEAEDAATYYCQQWSSNPLTFGAGTKLELKR
notes: mouse V regions on human IgG1/kappa; fucosylated; also called 41A10 (chimeric)
B2: chimeric 5H7 (antibody, human IgG1, kappa, V domains shown)
VH: EVKLVESGGGLVQPGDSLRLSCATSGFTFTDFYMSWVRQPPGRALEWLGFIRNKANGYTTEYSASVKGRFTISRDNSQSILYLQMNTLRAGDSATYYCVRVYGSTLHYWGQGTILTVSS
VL: DVVVTQSPDSLAVSLGQRATISCRASESVEYHGTSLMHWYQQKPGQPPKLLIYAASNVESGVPARFSGSGSGTDFSLNIHPVEEGDVSMFFCQQSRKVPWTFGGGTKLEIKR
notes: mouse V regions on human IgG1/kappa; fucosylated; also called 5H7 (chimeric)

Experiments:
[1] = target: T1, human CXCR5; test: cell-based or functional assay
[2] = target: T1, human CXCR5; test: flow cytometry, human PBMC B cells
Description: (§1) The apparent affinity for cell surface CXCR5 of chimeric and humanized CXCR5 fucosylated and afucosylated antibodies was assessed. More specifically, to determine the apparent affinity of chimeric and humanized CXCR5 antibodies to CXCR5-expressing cells, cell binding experiments were performed on human and cynomolgus monkey peripheral blood mononuclear cells (PBMCs) and human tonsillar mononuclear cells (TMCs). The apparent affinity of CXCR5 mab binding to CXCR5+ cells (B cells, bona fide Tfh cells, and circulating Tfh-like cells) was calculated as the EC50 of equilibrium binding titration curves in which the geometric mean fluorescence intensity (gMFI) of the antigen binding population was quantified by flow cytometry.
(§2) Following isolation, PBMCs were plated at a density of 1.0×10⁵ cells per well and CD4+ TMCs were plated at a density of 2.0×10⁵ cells per well in isolation buffer (PBS containing 1% FBS and 1 mM EDTA) in 96 well U-bottom plates. The plates were then centrifuged at 1500 rpm for 5 minutes at room temperature. PBMCs and CD4+ TMCs were resuspended in Fluorescence-activated cell sorting (FACS) buffer (PBS containing 1% FBS) containing human crystallized fragment Fc block (2 μL per well; Biolegend) and 4-fold serial dilutions of the antibodies (11-point dilution series, beginning at 5000 ng/mL for PBMCs and 312.5 ng/mL for CD4+ TMCs) and incubated on ice for 2 hours. PBMCs and CD4+ TMCs were then washed with FACS buffer 3 times and resuspended in 50-100 μL of FACs buffer containing fluorescent-conjugated antibodies for staining lymphocyte subsets and a fluorescent-conjugated secondary antibody against human Ig to detect CXCR5 monoclonal antibodies (mAbs). After incubation for 30 minutes at 4° C., PBMCs and CD4+ TMCs were washed with FACS buffer 2 times and resuspended in 125 μL of 0.5% paraformaldehyde (PFA) in PBS. Plates were stored at 4° C. until analysis by flow cytometry (BD LSRFortessa™ Cell Analyzer, BD Biosciences, Franklin Lakes, N.J.).
(§3) The cell binding titration curves were generated by plotting the gMFI of the antigen binding population against the log of CXCR5 antibody concentration. EC₅₀ values were determined using GraphPad Prism® (version 6.0, GraphPad Software, Inc, San Diego, Calif.) nonlinear-regression curve fits and a sigmoidal log of agonist dose-response model, according to the following equation

[3] = target: T2, cynomolgus monkey CXCR5; test: flow cytometry, cynomolgus PBMC B cells
Description: as §1, §2, §3

[4] = target: T1, human CXCR5; test: flow cytometry on Raji cells, fucosylated chimeric antibody
Description: The fucosylated chimeric antibodies were then purified using protein A columns. The apparent affinity (cell binding EC50s) of chimeric antibody binding to Raji cells was determined by flow cytometry using a FACSVerse Analyzer (BD Bioscience, Franklin Lakes, N.J.) and are shown in Table 3.

[5] = target: T2, cynomolgus monkey CXCR5; test: flow cytometry on cynoCXCR5-300.19 cells, fucosylated chimeric antibody
[6] = target: T3, CXCR1; test: flow cytometry (GMFI) on fixed CXCR1 cells, chimeric antibody, goat anti-human PE
Description: (§4) To determine the specificity of the antibodies for CXCR5, the binding of the antibodies to cells expressing other […] was assessed. Briefly, FlowCellect chemokine receptor cell lines expressing CXCR1, CXCR2, or CXCR3 (EMD Millipore, Billerica, Mass.), and Jurkats (ATCC, Manassas, Va.), which express CXCR4, were stained with 5 μg/ml or 10 μg/ml of each anti-CXCR5 chimeric antibody. The cells were then incubated with goat anti-human conjugated with PE (Southern Biotech, Birmingham, Ala.) prior to analysis by flow cytometry using a FACSVerse Analyzer (BD Biosciences, Franklin Lakes, N.J.).

[7] = target: T4, CXCR2; test: flow cytometry (GMFI) on fixed CXCR2 cells, chimeric antibody, goat anti-human PE
Description: as §4

[8] = target: T5, CXCR3; test: flow cytometry (GMFI) on fixed CXCR3 cells, chimeric antibody, goat anti-human PE
Description: as §4

[9] = target: T6, CXCR4 (human, UniProt P61073 1-352); test: flow cytometry (GMFI) on Jurkat cells, which express CXCR4; chimeric antibody, goat anti-human PE
T6 construct: whole, on cells
T6 sequence (P61073 whole entry): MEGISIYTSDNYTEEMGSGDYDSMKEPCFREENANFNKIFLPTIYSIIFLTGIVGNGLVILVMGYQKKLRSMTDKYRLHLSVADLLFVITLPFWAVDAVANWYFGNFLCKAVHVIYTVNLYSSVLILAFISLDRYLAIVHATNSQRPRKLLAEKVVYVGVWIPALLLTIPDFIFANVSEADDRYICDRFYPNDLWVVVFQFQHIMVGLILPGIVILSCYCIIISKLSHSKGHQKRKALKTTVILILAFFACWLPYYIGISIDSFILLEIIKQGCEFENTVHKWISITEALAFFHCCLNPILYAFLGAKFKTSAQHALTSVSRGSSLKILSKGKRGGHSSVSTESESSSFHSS
Description: as §4

Binder	ADCC Activity Average EC50, Human B Cells [1]	EC50 [2]	EC50 [3]	EC50 [4]	EC50 [5]	binding result [6]	binding result [7]	binding result [8]	binding result [9]
B1	11.7 nM	0.161 nM	0.549 nM	0.39 nM	0.831 nM	no binding (tested: 5 or 10 µg/ml (not on the sheet))	no binding (tested: 5 or 10 µg/ml (not on the sheet))	no binding (tested: 5 or 10 µg/ml (not on the sheet))	–
B2	–	–	–	0.0421 nM	0.0603 nM	no binding (tested: 5 or 10 µg/ml (not on the sheet))	no binding (tested: 5 or 10 µg/ml (not on the sheet))	no binding (tested: 5 or 10 µg/ml (not on the sheet))	no binding (tested: 5 or 10 µg/ml (not on the sheet))
